# Numbered stars: 1 amine (or outer) side, 2 acyl side, 3 side chain; on linkers, the order of the positions; unused ones are H or OH. Bridge positions count the residues as written; N and C are the ends. Side chains are listed from the residue outwards. Ends that are not written are not given here. * marks the point of attachment. C20 diacid = O=C(O)CCCCCCCCCCCCCCCCCCC(=O)*; C18 diacid = O=C(O)CCCCCCCCCCCCCCCCC(=O)*; C16 diacid = O=C(O)CCCCCCCCCCCCCCC(=O)*; γGlu = O=C(O)[C@H](CCC(=O)[*:2])N[*:1]; C14 diacid = O=C(O)CCCCCCCCCCCCC(=O)*
# T1: human amylin receptor (Amylin 3(a) receptor: human calcitonin receptor co-expressed with RAMP-3) (human, UniProt P30988 25-474; O60896 24-148, limits assumed)
# T1 construct: whole, on cells; Used as cell membranes prepared from the Amylin 3(a)/CRE-luc BHK cells (Assay V); the complex is called the human amylin receptor; also called hAmylin-R; hAmylinR
# T1 sequence (looked up) 1: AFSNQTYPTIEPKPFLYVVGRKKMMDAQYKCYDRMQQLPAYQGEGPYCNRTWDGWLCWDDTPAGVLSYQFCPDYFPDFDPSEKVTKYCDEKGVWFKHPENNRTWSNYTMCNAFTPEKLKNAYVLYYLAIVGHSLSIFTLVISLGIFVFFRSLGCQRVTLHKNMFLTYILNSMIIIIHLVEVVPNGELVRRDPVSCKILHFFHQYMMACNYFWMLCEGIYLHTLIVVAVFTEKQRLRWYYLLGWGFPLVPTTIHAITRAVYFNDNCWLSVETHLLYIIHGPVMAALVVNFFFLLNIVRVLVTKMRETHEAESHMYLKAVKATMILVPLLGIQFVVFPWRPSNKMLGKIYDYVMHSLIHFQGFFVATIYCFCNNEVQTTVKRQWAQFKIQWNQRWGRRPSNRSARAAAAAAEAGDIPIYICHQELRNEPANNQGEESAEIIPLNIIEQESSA
# T1 sequence (looked up) 2: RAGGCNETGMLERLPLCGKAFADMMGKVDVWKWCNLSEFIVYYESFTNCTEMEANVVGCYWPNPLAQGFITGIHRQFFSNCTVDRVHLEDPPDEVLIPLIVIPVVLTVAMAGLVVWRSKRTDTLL
# B1: N^ε1-[(4S)-4-carboxy-4-(13-carboxytridecanoylamino)butanoyl]-[Arg17,Pro21,Pro27,His34]-h-amylin (peptide)
# peptide: K([γGlu-C14 diacid])CNTATCATQRLANFLRHSSPNFGAIPSSTNVGHNTY-NH2
# modifications: disulfide 2-7; N-terminus assumed
# SMILES: CC[C@H](C)[C@H](NC(=O)[C@H](C)NC(=O)CNC(=O)[C@H](Cc1ccccc1)NC(=O)[C@H](CC(N)=O)NC(=O)[C@@H]1CCCN1C(=O)[C@H](CO)NC(=O)[C@H](CO)NC(=O)[C@H](Cc1c[nH]cn1)NC(=O)[C@H](CCCNC(=N)N)NC(=O)[C@H](CC(C)C)NC(=O)[C@H](Cc1ccccc1)NC(=O)[C@H](CC(N)=O)NC(=O)[C@H](C)NC(=O)[C@H](CC(C)C)NC(=O)[C@H](CCCNC(=N)N)NC(=O)[C@H](CCC(N)=O)NC(=O)[C@@H](NC(=O)[C@H](C)NC(=O)[C@@H]1CSSC[C@H](NC(=O)[C@@H](N)CCCCNC(=O)CC[C@H](NC(=O)CCCCCCCCCCCCC(=O)O)C(=O)O)C(=O)N[C@@H](CC(N)=O)C(=O)N[C@@H]([C@@H](C)O)C(=O)N[C@@H](C)C(=O)N[C@@H]([C@@H](C)O)C(=O)N1)[C@@H](C)O)C(=O)N1CCC[C@H]1C(=O)N[C@@H](CO)C(=O)N[C@@H](CO)C(=O)N[C@H](C(=O)N[C@@H](CC(N)=O)C(=O)N[C@H](C(=O)NCC(=O)N[C@@H](Cc1c[nH]cn1)C(=O)N[C@@H](CC(N)=O)C(=O)N[C@H](C(=O)N[C@@H](Cc1ccc(O)cc1)C(N)=O)[C@@H](C)O)C(C)C)[C@@H](C)O
# notes: modifications are with respect to human amylin
# B2: N^ε1-[(4S)-4-carboxy-4-(15-carboxypentadecanoylamino)butanoyl]-[Arg17,Pro21,Pro27,His34]-h-amylin (peptide)
# peptide: K([γGlu-C16 diacid])CNTATCATQRLANFLRHSSPNFGAIPSSTNVGHNTY-NH2
# modifications: disulfide 2-7; N-terminus assumed
# SMILES: CC[C@H](C)[C@H](NC(=O)[C@H](C)NC(=O)CNC(=O)[C@H](Cc1ccccc1)NC(=O)[C@H](CC(N)=O)NC(=O)[C@@H]1CCCN1C(=O)[C@H](CO)NC(=O)[C@H](CO)NC(=O)[C@H](Cc1c[nH]cn1)NC(=O)[C@H](CCCNC(=N)N)NC(=O)[C@H](CC(C)C)NC(=O)[C@H](Cc1ccccc1)NC(=O)[C@H](CC(N)=O)NC(=O)[C@H](C)NC(=O)[C@H](CC(C)C)NC(=O)[C@H](CCCNC(=N)N)NC(=O)[C@H](CCC(N)=O)NC(=O)[C@@H](NC(=O)[C@H](C)NC(=O)[C@@H]1CSSC[C@H](NC(=O)[C@@H](N)CCCCNC(=O)CC[C@H](NC(=O)CCCCCCCCCCCCCCC(=O)O)C(=O)O)C(=O)N[C@@H](CC(N)=O)C(=O)N[C@@H]([C@@H](C)O)C(=O)N[C@@H](C)C(=O)N[C@@H]([C@@H](C)O)C(=O)N1)[C@@H](C)O)C(=O)N1CCC[C@H]1C(=O)N[C@@H](CO)C(=O)N[C@@H](CO)C(=O)N[C@H](C(=O)N[C@@H](CC(N)=O)C(=O)N[C@H](C(=O)NCC(=O)N[C@@H](Cc1c[nH]cn1)C(=O)N[C@@H](CC(N)=O)C(=O)N[C@H](C(=O)N[C@@H](Cc1ccc(O)cc1)C(N)=O)[C@@H](C)O)C(C)C)[C@@H](C)O
# notes: as for B1
# B3: N^ε1-[(4S)-4-carboxy-4-(17-carboxyheptadecanoylamino)butanoyl]-[Arg17,Pro21,Pro27,His34]-h-amylin (peptide)
# peptide: K([γGlu-C18 diacid])CNTATCATQRLANFLRHSSPNFGAIPSSTNVGHNTY-NH2
# modifications: disulfide 2-7; N-terminus assumed
# SMILES: CC[C@H](C)[C@H](NC(=O)[C@H](C)NC(=O)CNC(=O)[C@H](Cc1ccccc1)NC(=O)[C@H](CC(N)=O)NC(=O)[C@@H]1CCCN1C(=O)[C@H](CO)NC(=O)[C@H](CO)NC(=O)[C@H](Cc1c[nH]cn1)NC(=O)[C@H](CCCNC(=N)N)NC(=O)[C@H](CC(C)C)NC(=O)[C@H](Cc1ccccc1)NC(=O)[C@H](CC(N)=O)NC(=O)[C@H](C)NC(=O)[C@H](CC(C)C)NC(=O)[C@H](CCCNC(=N)N)NC(=O)[C@H](CCC(N)=O)NC(=O)[C@@H](NC(=O)[C@H](C)NC(=O)[C@@H]1CSSC[C@H](NC(=O)[C@@H](N)CCCCNC(=O)CC[C@H](NC(=O)CCCCCCCCCCCCCCCCC(=O)O)C(=O)O)C(=O)N[C@@H](CC(N)=O)C(=O)N[C@@H]([C@@H](C)O)C(=O)N[C@@H](C)C(=O)N[C@@H]([C@@H](C)O)C(=O)N1)[C@@H](C)O)C(=O)N1CCC[C@H]1C(=O)N[C@@H](CO)C(=O)N[C@@H](CO)C(=O)N[C@H](C(=O)N[C@@H](CC(N)=O)C(=O)N[C@H](C(=O)NCC(=O)N[C@@H](Cc1c[nH]cn1)C(=O)N[C@@H](CC(N)=O)C(=O)N[C@H](C(=O)N[C@@H](Cc1ccc(O)cc1)C(N)=O)[C@@H](C)O)C(C)C)[C@@H](C)O
# notes: as for B1
# B4: N^ε1-[(4S)-4-carboxy-4-(19-carboxynonadecanoylamino)butanoyl]-[Asp14,Arg17,Pro21,Pro27,Pro34,Arg35]-h-amylin (peptide)
# peptide: K([γGlu-C20 diacid])CNTATCATQRLADFLRHSSPNFGAIPSSTNVGPRTY-NH2
# modifications: disulfide 2-7; N-terminus assumed
# SMILES: CC[C@H](C)[C@H](NC(=O)[C@H](C)NC(=O)CNC(=O)[C@H](Cc1ccccc1)NC(=O)[C@H](CC(N)=O)NC(=O)[C@@H]1CCCN1C(=O)[C@H](CO)NC(=O)[C@H](CO)NC(=O)[C@H](Cc1c[nH]cn1)NC(=O)[C@H](CCCNC(=N)N)NC(=O)[C@H](CC(C)C)NC(=O)[C@H](Cc1ccccc1)NC(=O)[C@H](CC(=O)O)NC(=O)[C@H](C)NC(=O)[C@H](CC(C)C)NC(=O)[C@H](CCCNC(=N)N)NC(=O)[C@H](CCC(N)=O)NC(=O)[C@@H](NC(=O)[C@H](C)NC(=O)[C@@H]1CSSC[C@H](NC(=O)[C@@H](N)CCCCNC(=O)CC[C@H](NC(=O)CCCCCCCCCCCCCCCCCCC(=O)O)C(=O)O)C(=O)N[C@@H](CC(N)=O)C(=O)N[C@@H]([C@@H](C)O)C(=O)N[C@@H](C)C(=O)N[C@@H]([C@@H](C)O)C(=O)N1)[C@@H](C)O)C(=O)N1CCC[C@H]1C(=O)N[C@@H](CO)C(=O)N[C@@H](CO)C(=O)N[C@H](C(=O)N[C@@H](CC(N)=O)C(=O)N[C@H](C(=O)NCC(=O)N1CCC[C@H]1C(=O)N[C@@H](CCCNC(=N)N)C(=O)N[C@H](C(=O)N[C@@H](Cc1ccc(O)cc1)C(N)=O)[C@@H](C)O)C(C)C)[C@@H](C)O
# notes: as for B1
# B5: N^ε1-[(4S)-4-carboxy-4-(19-carboxynonadecanoylamino)butanoyl]-[Asp14,Arg17,Pro21,Pro27,Pro34,Glu35]-h-amylin (peptide)
# peptide: K([γGlu-C20 diacid])CNTATCATQRLADFLRHSSPNFGAIPSSTNVGPETY-NH2
# modifications: disulfide 2-7; N-terminus assumed
# SMILES: CC[C@H](C)[C@H](NC(=O)[C@H](C)NC(=O)CNC(=O)[C@H](Cc1ccccc1)NC(=O)[C@H](CC(N)=O)NC(=O)[C@@H]1CCCN1C(=O)[C@H](CO)NC(=O)[C@H](CO)NC(=O)[C@H](Cc1c[nH]cn1)NC(=O)[C@H](CCCNC(=N)N)NC(=O)[C@H](CC(C)C)NC(=O)[C@H](Cc1ccccc1)NC(=O)[C@H](CC(=O)O)NC(=O)[C@H](C)NC(=O)[C@H](CC(C)C)NC(=O)[C@H](CCCNC(=N)N)NC(=O)[C@H](CCC(N)=O)NC(=O)[C@@H](NC(=O)[C@H](C)NC(=O)[C@@H]1CSSC[C@H](NC(=O)[C@@H](N)CCCCNC(=O)CC[C@H](NC(=O)CCCCCCCCCCCCCCCCCCC(=O)O)C(=O)O)C(=O)N[C@@H](CC(N)=O)C(=O)N[C@@H]([C@@H](C)O)C(=O)N[C@@H](C)C(=O)N[C@@H]([C@@H](C)O)C(=O)N1)[C@@H](C)O)C(=O)N1CCC[C@H]1C(=O)N[C@@H](CO)C(=O)N[C@@H](CO)C(=O)N[C@H](C(=O)N[C@@H](CC(N)=O)C(=O)N[C@H](C(=O)NCC(=O)N1CCC[C@H]1C(=O)N[C@@H](CCC(=O)O)C(=O)N[C@H](C(=O)N[C@@H](Cc1ccc(O)cc1)C(N)=O)[C@@H](C)O)C(C)C)[C@@H](C)O
# notes: as for B1
# Biological target: T1, human amylin receptor (Amylin 3(a) …)
# Assay: SPA competition binding, displacement of 125I-rat amylin from membranes of BHK cells with human calcitonin receptor + RAMP-3 (Assay V)
# Procedure: The binding assay was performed using scintillation proximity assay (SPA) beads (RPNQ0001) from PerkinElmer and cell membranes from the Amylin 3(a)/CRE-luc cells (as described in Assay (II)) were used. Membranes were prepared in the following way; the cells were rinsed with PBS and incubated with Versene for approximately 5 min before harvesting. The cells were flushed with PBS and the cell-suspension was centrifuged for 5 min at 1000 rpm. Cells were homogenized (ultrathurrax) in a buffer containing 20 mM Na-HEPES and 10 mM EDTA (pH 7.4) and centrifuged at 20.000 rpm for 15 min. The resulting pellet was resuspended, homogenized and centrifuged (20.000 rpm, 15 min) in a buffer containing 20 mM Na-HEPES and 0.1 mM EDTA (pH 7.4, buffer 2). The resulting pellet was resuspended in buffer 2 and protein concentration was measured (BCA protein Assay, Pierce). The homogenate was kept cold during the whole procedure. The membranes were kept at −80° C. until use. The assay was performed in a 384 well Optiplate (PerkinElmer) in a total volume of 40 ul. Membranes were mixed with SPA beads. Final concentration of membranes 35 ng/μL final and SPA beads was 0.05 mg/well. Test-compounds were dissolved in DMSO and further diluted in assay buffer (50 mM Hepes, pH 7.4, 1 mM CaCl2, 5 mM MgCl₂, 0.1% OA and 0.02% Tween20). […] The final mixture was incubated with shaking at 400 rpm for 120 min at 25° C. prior to centrifugation (1500 rpm, 10 min). Samples were analyzed on TopCounter™ (Packard). The IC₅₀ was calculated using (one site binding competition analysis) GraphPad Prism5 as a measure of receptor affinity.
row,Binder,IC50
1,B1,1040 pM
2,B2,580 pM
3,B3,382 pM
4,B4,281 pM
5,B5,196 pM
